Numbering of substitutions follows the chain as printed. Names and notes keep the numbering of the source.

First the molecules themselves.
T1: Y259G (limits assumed)
T1 construct: not in the list MOLECULES; also called human CD117 D1-2-3 variant Y259G
T1 extracellular domains 1, 2 and 3: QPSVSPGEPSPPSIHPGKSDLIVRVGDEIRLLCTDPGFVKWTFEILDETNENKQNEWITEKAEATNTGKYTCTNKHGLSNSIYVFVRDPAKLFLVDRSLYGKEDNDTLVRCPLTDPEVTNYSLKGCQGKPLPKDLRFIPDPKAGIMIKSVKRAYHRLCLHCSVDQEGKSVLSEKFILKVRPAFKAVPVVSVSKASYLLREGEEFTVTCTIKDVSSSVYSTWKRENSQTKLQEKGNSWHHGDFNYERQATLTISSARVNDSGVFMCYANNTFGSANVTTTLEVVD

B1: Refmab #3 (antibody, V domains shown)
VH: EVQLVQSGAEVKKPGESLKISCKGSGYSFTNYWIGWVRQMPGKGLEWMAIINPRDSDTRYRPSFQGQVTISADKSISTAYLQWSSLKASDTAMYYCARHGRGYEGYEGAFDIWGQGTLVTVSS
VL: DIQMTQSPSSLSASVGDRVTITCRSSQGIRSDLGWYQQKPGKAPKLLIYDASNLETGVPSRFSGSGSGTDFTLTISSLQPEDFATYYCQQANGFPLTFGGGTKVEIK
B2: Refmab #3 Fab fragment (Fab, V domains shown)
VH: B1 VH
VL: B1 VL
B3: V120P (receptor)
extracellular domains 1, 2 and 3: T1 extracellular domains 1, 2 and 3 with V95P, G234Y
notes: not in the list MOLECULES; also called human CD117 D1-2-3 variant V120P
B4: S261V (receptor)
extracellular domains 1, 2 and 3: T1 extracellular domains 1, 2 and 3 with G234Y, S236V
notes: not in the list MOLECULES; also called human CD117 D1-2-3 variant S261V

Data set [1] concerns the target human CD117 D1-2-3 variant Y259P (human, UniProt P10721 26-311, limits assumed). Nature of the data set: BLI (Octet) as in Example 7, CD117 variant as analyte; affinity class as drawn, classes defined by the key on the sheet. Background: Biolayer interferometry detects binding as a change in optical thickness at a sensor tip.
Procedure: (§1) As an analyte, human CD117 wt and variants, containing only domains 1, 2 and 3 (CD117 D1-2-3), was titrated at 500 nM, 50 nM and 5 nM. […] Reference subtraction was performed against buffer only wells. AHC tips were regenerated using 10 mM Gly-HCl pH 1.7. Data were analyzed using the Octet Data Analysis software HT 12.0. Data were fitted (when possible) to a 1:1 binding model. Kinetic rates ka and ka were globally fitted. […] For this qualitative analysis, the binding level of the top analyte concentration at end of the association step was used.
Another data set addresses T1, Y259G. The data set is described as above.
Data set [2] deals with human CD117 D1-2-3 variant Y259A (human, UniProt P10721 26-311, limits assumed). Described as above.
Procedure: as §1
The data set “S261V” addresses B4. The description is as above.
Procedure: as §1
The target in data set [3] is human CD117 D1-2-3 variant Y259E (human, UniProt P10721 26-311, limits assumed). The description is as above.
Procedure: as §1
Data set [4] concerns the target T2, human wild-type CD117 (human, UniProt P10721 26-976).
T2 construct: also called wt CD117; KIT
Nature of the data set: flow cytometry, HEK-293T with wt CD117 vs vector alone, IgG at 0.063 µg/mL. In general terms: Flow cytometry measures light scatter and fluorescence of single cells or particles in a stream.
Procedure: Binding of the antibodies to the transfected cells and the optimal assay conditions were evaluated in 384-well format. Detection of cellular expression was measured via high-throughput flow cytometry. Serial dilutions of each antibody were tested for immunoreactivity against cells expressing CD117 or vector alone. The optimal screening concentration for each antibody was determined based on the raw signal values and signal-to-background calculations. Each point represents the mean of four replicates.

For data set [5], the target named is T3, human CD117 D1-2-3 variant S261E (human, UniProt P10721 26-311, limits assumed).
T3 construct: Recombinant purified
Nature of the data set: BLI (Octet) as in Example 7, CD117 variant as analyte; affinity class as drawn.

For data set [6], the target named is T4, human CD117 D1-2-3 variant S261Q (human, UniProt P10721 26-311, limits assumed).
T4 construct: Recombinant purified
Described as above.

A further data set concerns the target T5, CD117 D1-2-3 wt (human, UniProt P10721 26-311, limits assumed).
T5 construct: also called human CD117 wt containing only domains 1, 2 and 3; wild type CD117 (recombinant purified)
Briefly: BLI (Octet) as in Example 7, CD117 as analyte; affinity class as drawn, classes defined by the key on the sheet.

In data set [7] the target is T2, human wild-type CD117. Nature of the data set: flow cytometry, HEK-293T with wt CD117 vs vector alone, Fab at 0.50 µg/mL.
Data set [8] has as its target T6, Biotinylated Avitag-hSCF (human, UniProt P21583 26-190, limits assumed, biotinylated Avitag).
T6 construct: Bought reagent; also called hSCF (Acros Biosystems SCF-H82E1)
Briefly: BLI (Octet), steady state: biotinylated SCF on streptavidin biosensor, CD117 D1-2-3 variant as analyte; KD relative to WT.
Procedure: (§2) Domains 4 and 5 were used as a negative, non-binding control.
(§3) Association was monitored for 300 s and dissociation for 600 s. […] Reference subtraction was performed against buffer only wells. Biosensors were not regenerated and a new set of SA biosensors was used for each analyte. Data were analyzed using the Octet Data Analysis software HT 12.0. Steady state data analysis was performed due to the fast on/off nature of the interaction.

A short description of data set [9]: Melting temperature of CD117 variants by differential scanning fluorimetry. The class given is physicochemical. Particulars: Sypro Orange, PBS, 25 to 95° C. On the procedure: Biophysical properties of the elected variants were tested. Aggregation of the elected CD117 variants was determined by preparative size exclusion chromatography. Yield of the elected CD117 variants was determined by dividing the amount of protein after purification by the production volume. Melting temperature was measured by differential scanning fluorimetry using Sypro Orange (Sigma, PN: S5692-50 ul) and an RT-PCR machine (C1000 Thermal Cycler, Biorad). The samples were measured at 0.25-1.0 mg/ml in PBS buffer in duplicates and Sypro Orange was added at a final concentration of 5×. […] The fluorescent increase was monitored as a function of temperature and the melting temperature was determined as the inflexion point of the sigmoidal curve and compared to wild-type CD117. Results are shown in FIGS. 4 (aggregation), 5 (yield) and 6 (melting temperature).

For the next data set, the system named is Refmab #3. Briefly: Octet: binding of CD117 variants to Refmab #3. The settings on record: qualitative Octet analysis. Here is the method: A more sophisticated analysis of binding to the elected variants was performed with antibody Refmab #1. Binding of Refmab #1 to wt and variants (analyte) was measured in an Octet system RED96e or R8 at 25° C. with shaking at 1,000 rpm using 1× kinetic buffer (Sartorius, PN: 18-1105). First, the elected variants were screened for their ability to bind Refmab #1 using three different concentrations of analytes. Antibody Refmab #1 was captured by Anti-Human Fc capture biosensor (AHC) (Sartorius, PN: 18-5060) for 300 s at 0.5 to 1 μg/mL. As an analyte, human CD117 wt and variants, containing only domains 1, 2 and 3 (CD117 D1-2-3), was titrated at 500 nM, 50 nM and 5 nM. Association and dissociation of the analyte to Refmab #1 was monitored for 300 s and 900 s, respectively. Reference subtraction was performed against buffer only wells. AHC tips were regenerated using 10 mM Gly-HCl pH 1.7. Data were analyzed using the Octet Data Analysis software HT 12.0. Data were fitted (when possible) to a 1:1 binding model. Kinetic rates ka and […] globally fitted. Binding level of the elected variants were compared to wild type and are shown as percent in FIG. 7. For this qualitative analysis, the binding level of the top analyte concentration at end of the association step was used.
A similar experiment to that in Example 7 was performed, but utilizing Refmab's #2 and #3.

For data set [10], the target named is T6, Biotinylated Avitag-hSCF. Briefly: BLI (Octet), steady state: biotinylated SCF on streptavidin biosensor, CD117 D1-2-3 variant as analyte.
Procedure: as §2, §3

T6 sequence (P21583 26-190 limits assumed): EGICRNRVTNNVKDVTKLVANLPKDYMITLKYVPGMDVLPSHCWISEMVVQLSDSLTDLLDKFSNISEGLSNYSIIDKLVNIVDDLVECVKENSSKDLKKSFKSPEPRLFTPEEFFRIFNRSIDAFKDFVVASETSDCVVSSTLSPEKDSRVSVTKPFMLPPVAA
Procedure for Y259G: as §1

For the molecule B1, the Kd (as a rule, the free concentration of one partner at which half of the binding sites on the other are occupied at equilibrium, for simple one-to-one binding) in data set [1] is > 50 nM; with Y259G it was > 50 nM; in [2] it was > 50 nM; in the data set with S261V it was > 50 nM; in data set [3] it was < 5 nM; with CD117 D1-2-3 wt, < 5 nM. For the same molecule, the “Signal:Background” value with human wild-type CD117 [4] was 8 ratio to background. The binding result in [5] and in data set [6] was “no binding (tested: not shown on the sheet)” each time.

For B2, the “Signal:Background” value in the data set with human wild-type CD117 [7] was 6 ratio to background.

Regarding B3, the binding result with Biotinylated Avitag-hSCF [8] is listed as “binds”. The melting temperature entry in data set [9] is “two melting points were measured”.

As to B4, the “binding to Refmab #3 compared to wild type CD117” value in the data set with Refmab #3 was “strong decrease in binding”. In addition, the binding result with Biotinylated Avitag-hSCF [10] is given as “no binding (tested: 1000 nM (not on the sheet))”.

The values above are taken from patent publication US20250057951A1, “DISCERNIBLE CELL SURFACE PROTEIN VARIANTS OF CD117 FOR USE IN CELL THERAPY” (UNIVERSITÄT BASEL, priority 2021, published 2025).
